Experimental data reported in article doi:10.1101/2022.02.08.479534, “FoxP3 can fold into two distinct dimerization states with divergent functional implications for T cell homeostasis”.

Legend:
Assay in all cases: EMSA; EMSA: 0.2 uM DNA, 20 mM Tris pH 7.5, 150 mM NaCl, 1.5 mM MgCl2, 2 mM DTT, 30 min at 4 C; anti-HA bead DNA pull-down: 20 min at room temperature; the EMSA IR-FKHM4g length is taken as 31 bp
[1] = target: T1, FoxP3ΔN'' (Mus musculus, UniProt Q99JB6 204-417, C217S;C231S;del277-314); conditions: protein: recombinant; tags: His6-NusA cleaved; chain copies: 2; blunt
T1 sequence: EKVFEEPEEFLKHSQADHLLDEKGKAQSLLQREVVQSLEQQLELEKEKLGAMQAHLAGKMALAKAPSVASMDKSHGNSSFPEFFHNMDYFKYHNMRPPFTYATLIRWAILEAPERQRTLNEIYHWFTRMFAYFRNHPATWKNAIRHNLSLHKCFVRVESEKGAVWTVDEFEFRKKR

[2] = target: T2, FoxP3RBR-forkhead (Mus musculus, UniProt Q99JB6 284-423); conditions: protein: recombinant; tags: His6-NusA cleaved (HRV3C); blunt
T2 sequence: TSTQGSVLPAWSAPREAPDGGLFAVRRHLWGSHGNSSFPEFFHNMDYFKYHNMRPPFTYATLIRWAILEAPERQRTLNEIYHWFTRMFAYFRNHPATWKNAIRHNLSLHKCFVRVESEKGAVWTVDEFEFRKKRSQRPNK

[3] = target: T3, FoxP3ΔN' (Mus musculus, UniProt Q99JB6 204-417, C217S;C231S;del277-304); conditions: protein: recombinant; tags: His6-NusA cleaved; chain copies: 2; blunt
T3 sequence: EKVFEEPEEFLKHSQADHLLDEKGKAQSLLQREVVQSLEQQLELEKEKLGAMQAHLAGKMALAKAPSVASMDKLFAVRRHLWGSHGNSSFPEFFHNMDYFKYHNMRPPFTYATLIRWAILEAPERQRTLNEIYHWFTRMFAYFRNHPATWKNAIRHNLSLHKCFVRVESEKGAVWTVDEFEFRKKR

Measured: binding result

B1: IR-FKHM4g (31bp) (dsDNA)
DNA 1: TTAGGAAAATTTGTTTACTCGAGTAAACAAA
DNA 2: TTTGTTTACTCGAGTAAACAAATTTTCCTAA
binds: all assays above
